# Laboratory results from US20030078374A1, “Complementary peptide ligands generated from the human genome” (priority 1999, published 2003).
# Tests used:
# [1] = target: IL-1β (Homo sapiens, UniProt P01584); test: two independent in vitro bioassays of IL-1β biological activity; type: cell-based; settings: effect dependent on the peptide sequence
# Source text: The programme identified the antisense region LITVLNI in the interleukin 1 type 1 receptor (IL-1R).
# The effect is dependent on the peptide sequence.
# [2] = target: T1, IL-1 (Homo sapiens, UniProt P01584); test: Serum Amyloid IL-1 assay; type: cell-based
# [3] = target: T1, IL-1; test: direct binding to IL-1 by biosensing techniques
# T1 sequence (P01584 117-269): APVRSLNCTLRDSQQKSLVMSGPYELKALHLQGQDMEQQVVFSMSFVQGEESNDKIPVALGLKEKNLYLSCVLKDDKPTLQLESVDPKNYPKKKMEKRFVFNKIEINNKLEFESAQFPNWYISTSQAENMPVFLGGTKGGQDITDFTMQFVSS
# IL-1β, sequence (P01584 117-269): as above
substance,measurement,setting,value
LITVLNI [antisense region in the interleukin 1 type 1 receptor (IL-1R) identified by the programme],inhibition of the biological activity of IL-1β,[1],shown to inhibit the biological activity of IL-1β
same,inhibition of IL-1 activity (same effect) in Serum Amyloid IL-1 assay,[2],same effect is also seen
same,direct binding to IL-1,[3],shown to bind directly to IL-1
